# According to patent US20240141072A1 (published 2024):
# What was measured:
# Experiment in all cases: Octet BLI; biotinylated huDLL3-IgG1 fusion on streptavidin tips; single 50 nM trispecific, conditioned medium
# [1] = target: T1, anti-DLL3 trispecific protein with DLL3 binding domain 42C11
# T1 construct: trispecific, one chain
# Description: (§1) Using the conditioned medium with known concentrations of the anti-DLL3 trispecific proteins, the relative binding affinities of the anti-DLL3 trispecific proteins toward human DLL3 protein were measured using a method where biotinylated version of human DLL3 protein were expressed as a human IgG1 fusion protein, and the binding affinity measurement was carried out in an Octet instrument with streptavidin tips.
# [2] = target: T2, anti-DLL3 trispecific protein with DLL3 binding domain 41D01
# T2 construct: trispecific, one chain
# Description: as §1
# [3] = target: T3, anti-DLL3 trispecific protein with DLL3 binding domain 51F03
# T3 construct: trispecific, one chain; also called 51F3
# Description: as §1
# [4] = target: T4, anti-DLL3 trispecific protein with DLL3 binding domain 41D07
# T4 construct: trispecific, one chain
# Description: as §1
# [5] = target: T5, anti-DLL3 trispecific protein with DLL3 binding domain 42F01
# T5 construct: trispecific, one chain
# Description: as §1
# [6] = target: T6, anti-DLL3 trispecific protein with DLL3 binding domain 51A01
# T6 construct: trispecific, one chain
# Description: as §1
# [7] = target: T7, anti-DLL3 trispecific protein with DLL3 binding domain 41C02
# T7 construct: trispecific, one chain
# Description: as §1
# [8] = target: T8, anti-DLL3 trispecific protein with DLL3 binding domain 51A05
# T8 construct: trispecific, one chain; also called 51A5
# Description: as §1
# [9] = target: T9, anti-DLL3 trispecific protein with DLL3 binding domain 51C02
# T9 construct: trispecific, one chain
# Description: as §1
# [10] = target: T10, anti-DLL3 trispecific protein with DLL3 binding domain 52D04
# T10 construct: trispecific, one chain; same domain order as the TAC protein m79; also called 52D4
# Description: as §1
# [11] = target: T11, anti-DLL3 trispecific protein with DLL3 binding domain 53A09
# T11 construct: trispecific, one chain
# Description: as §1
# [12] = target: T12, anti-DLL3 trispecific protein with DLL3 binding domain 42C07
# T12 construct: trispecific, one chain
# Description: as §1
# [13] = target: T13, anti-DLL3 trispecific protein with DLL3 binding domain 51B01
# T13 construct: trispecific, one chain
# Description: as §1
# [14] = target: T14, anti-DLL3 trispecific protein with DLL3 binding domain 42A03
# T14 construct: trispecific, one chain
# Description: as §1
# [15] = target: T15, anti-DLL3 trispecific protein with DLL3 binding domain 42E05
# T15 construct: trispecific, one chain
# Description: as §1
# [16] = target: T16, anti-DLL3 trispecific protein with DLL3 binding domain 42C03
# T16 construct: trispecific, one chain
# Description: as §1
# [17] = target: T17, anti-DLL3 trispecific protein with DLL3 binding domain 51F01
# T17 construct: trispecific, one chain
# Description: as §1
# [18] = target: T18, anti-DLL3 trispecific protein with DLL3 binding domain 51D01
# T18 construct: trispecific, one chain
# Description: as §1
# [19] = target: T19, anti-DLL3 trispecific protein with DLL3 binding domain 41D03
# T19 construct: trispecific, one chain
# Description: as §1
# [20] = target: T20, anti-DLL3 trispecific protein with DLL3 binding domain 42F08
# T20 construct: trispecific, one chain
# Description: as §1
# [21] = target: T21, anti-DLL3 trispecific protein with DLL3 binding domain 51A03
# T21 construct: trispecific, one chain
# Description: as §1
# [22] = target: T22, anti-DLL3 trispecific protein with DLL3 binding domain 41E01
# T22 construct: trispecific, one chain
# Description: as §1
# [23] = target: T23, anti-DLL3 trispecific protein with DLL3 binding domain 51E03
# T23 construct: trispecific, one chain
# Description: as §1
# [24] = target: T24, anti-DLL3 trispecific protein with DLL3 binding domain 53C04
# T24 construct: trispecific, one chain
# Description: as §1
# [25] = target: T25, anti-DLL3 trispecific protein with DLL3 binding domain 42A07
# T25 construct: trispecific, one chain
# Description: as §1
# [26] = target: T26, anti-DLL3 trispecific protein with DLL3 binding domain 42A08
# T26 construct: trispecific, one chain
# Description: as §1
# [27] = target: T27, anti-DLL3 trispecific protein with DLL3 binding domain 42E02
# T27 construct: trispecific, one chain
# Description: as §1
# T8 sequence (chain, as listed by the source): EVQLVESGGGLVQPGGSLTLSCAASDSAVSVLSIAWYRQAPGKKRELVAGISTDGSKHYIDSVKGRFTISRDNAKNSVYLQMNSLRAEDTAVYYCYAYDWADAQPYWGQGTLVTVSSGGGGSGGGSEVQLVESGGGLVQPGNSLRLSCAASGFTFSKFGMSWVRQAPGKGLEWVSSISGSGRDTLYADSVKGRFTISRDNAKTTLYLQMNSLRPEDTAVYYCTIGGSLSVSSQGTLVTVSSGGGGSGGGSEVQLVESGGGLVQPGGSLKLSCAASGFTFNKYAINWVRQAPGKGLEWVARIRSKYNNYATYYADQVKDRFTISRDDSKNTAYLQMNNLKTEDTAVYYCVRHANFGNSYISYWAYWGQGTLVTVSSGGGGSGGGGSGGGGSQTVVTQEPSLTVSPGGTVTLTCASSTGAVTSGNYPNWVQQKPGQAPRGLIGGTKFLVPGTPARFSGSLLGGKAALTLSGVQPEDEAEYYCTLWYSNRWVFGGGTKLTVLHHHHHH
# T14 sequence (chain, as listed by the source): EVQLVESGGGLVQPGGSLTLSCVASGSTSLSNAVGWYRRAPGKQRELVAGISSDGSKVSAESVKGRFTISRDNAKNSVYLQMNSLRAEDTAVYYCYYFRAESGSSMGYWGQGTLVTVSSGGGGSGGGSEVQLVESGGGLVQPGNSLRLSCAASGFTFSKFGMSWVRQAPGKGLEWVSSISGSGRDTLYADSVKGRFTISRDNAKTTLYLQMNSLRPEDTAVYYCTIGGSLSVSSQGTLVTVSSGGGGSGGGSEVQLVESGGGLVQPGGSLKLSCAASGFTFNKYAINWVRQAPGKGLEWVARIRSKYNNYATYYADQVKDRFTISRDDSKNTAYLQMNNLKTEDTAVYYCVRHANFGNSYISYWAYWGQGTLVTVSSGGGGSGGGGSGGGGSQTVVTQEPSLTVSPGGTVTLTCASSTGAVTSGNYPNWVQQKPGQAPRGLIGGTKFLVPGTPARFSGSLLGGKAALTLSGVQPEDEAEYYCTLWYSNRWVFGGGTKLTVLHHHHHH
# T7 sequence (chain, as listed by the source): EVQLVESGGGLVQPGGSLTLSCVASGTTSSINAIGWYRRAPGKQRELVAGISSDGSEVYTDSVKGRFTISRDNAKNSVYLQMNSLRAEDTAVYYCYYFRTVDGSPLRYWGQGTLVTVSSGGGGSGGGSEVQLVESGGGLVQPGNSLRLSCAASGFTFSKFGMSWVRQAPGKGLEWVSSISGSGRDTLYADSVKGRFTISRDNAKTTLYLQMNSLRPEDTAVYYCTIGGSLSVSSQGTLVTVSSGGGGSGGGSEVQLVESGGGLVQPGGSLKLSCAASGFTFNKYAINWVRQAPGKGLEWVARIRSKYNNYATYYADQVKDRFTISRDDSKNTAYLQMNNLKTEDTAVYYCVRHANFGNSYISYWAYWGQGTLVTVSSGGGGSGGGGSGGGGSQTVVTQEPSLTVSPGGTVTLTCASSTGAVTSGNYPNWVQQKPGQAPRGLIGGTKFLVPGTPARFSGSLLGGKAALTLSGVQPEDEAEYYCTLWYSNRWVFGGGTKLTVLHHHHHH
# T19 sequence (chain, as listed by the source): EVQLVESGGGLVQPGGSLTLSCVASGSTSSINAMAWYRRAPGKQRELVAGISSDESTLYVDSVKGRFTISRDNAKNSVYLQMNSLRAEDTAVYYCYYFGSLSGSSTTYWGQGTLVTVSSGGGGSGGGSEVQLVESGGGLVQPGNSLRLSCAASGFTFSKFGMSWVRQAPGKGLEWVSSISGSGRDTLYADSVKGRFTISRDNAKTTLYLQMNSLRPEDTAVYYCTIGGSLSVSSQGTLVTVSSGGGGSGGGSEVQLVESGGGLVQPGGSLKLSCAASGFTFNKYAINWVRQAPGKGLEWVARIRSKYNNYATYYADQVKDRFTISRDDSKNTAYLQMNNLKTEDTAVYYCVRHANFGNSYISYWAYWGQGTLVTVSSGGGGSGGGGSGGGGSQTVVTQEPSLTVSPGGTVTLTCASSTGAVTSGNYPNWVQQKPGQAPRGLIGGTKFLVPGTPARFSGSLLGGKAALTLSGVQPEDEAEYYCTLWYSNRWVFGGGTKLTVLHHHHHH
# T2 sequence (chain, as listed by the source): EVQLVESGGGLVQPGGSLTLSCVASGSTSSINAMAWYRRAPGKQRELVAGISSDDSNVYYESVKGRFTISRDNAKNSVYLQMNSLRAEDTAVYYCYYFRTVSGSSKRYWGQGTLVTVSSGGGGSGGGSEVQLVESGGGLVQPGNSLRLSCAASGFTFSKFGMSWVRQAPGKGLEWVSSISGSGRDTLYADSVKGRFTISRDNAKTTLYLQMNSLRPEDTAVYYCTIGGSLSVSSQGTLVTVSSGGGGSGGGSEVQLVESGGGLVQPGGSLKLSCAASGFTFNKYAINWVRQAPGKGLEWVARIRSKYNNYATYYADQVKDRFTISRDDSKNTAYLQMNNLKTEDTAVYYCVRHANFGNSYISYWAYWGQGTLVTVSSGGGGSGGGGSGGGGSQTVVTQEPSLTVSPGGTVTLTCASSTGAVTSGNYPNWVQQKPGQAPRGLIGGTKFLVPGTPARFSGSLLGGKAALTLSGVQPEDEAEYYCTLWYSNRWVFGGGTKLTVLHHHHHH
# T11 sequence (chain, as listed by the source): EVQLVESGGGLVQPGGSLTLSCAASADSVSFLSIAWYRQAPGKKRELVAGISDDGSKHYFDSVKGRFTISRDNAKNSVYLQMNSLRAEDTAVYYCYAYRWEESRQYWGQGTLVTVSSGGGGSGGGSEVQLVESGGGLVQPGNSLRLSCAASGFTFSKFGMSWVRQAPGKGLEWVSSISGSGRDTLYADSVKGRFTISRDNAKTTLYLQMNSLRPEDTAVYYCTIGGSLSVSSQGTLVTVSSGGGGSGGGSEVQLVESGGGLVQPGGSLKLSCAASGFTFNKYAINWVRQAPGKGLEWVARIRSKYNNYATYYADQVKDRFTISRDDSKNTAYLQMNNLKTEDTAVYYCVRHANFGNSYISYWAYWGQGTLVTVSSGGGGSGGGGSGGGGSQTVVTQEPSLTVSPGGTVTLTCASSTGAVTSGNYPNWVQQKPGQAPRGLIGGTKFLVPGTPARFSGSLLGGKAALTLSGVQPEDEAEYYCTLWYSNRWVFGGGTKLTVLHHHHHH
# T15 sequence (chain, as listed by the source): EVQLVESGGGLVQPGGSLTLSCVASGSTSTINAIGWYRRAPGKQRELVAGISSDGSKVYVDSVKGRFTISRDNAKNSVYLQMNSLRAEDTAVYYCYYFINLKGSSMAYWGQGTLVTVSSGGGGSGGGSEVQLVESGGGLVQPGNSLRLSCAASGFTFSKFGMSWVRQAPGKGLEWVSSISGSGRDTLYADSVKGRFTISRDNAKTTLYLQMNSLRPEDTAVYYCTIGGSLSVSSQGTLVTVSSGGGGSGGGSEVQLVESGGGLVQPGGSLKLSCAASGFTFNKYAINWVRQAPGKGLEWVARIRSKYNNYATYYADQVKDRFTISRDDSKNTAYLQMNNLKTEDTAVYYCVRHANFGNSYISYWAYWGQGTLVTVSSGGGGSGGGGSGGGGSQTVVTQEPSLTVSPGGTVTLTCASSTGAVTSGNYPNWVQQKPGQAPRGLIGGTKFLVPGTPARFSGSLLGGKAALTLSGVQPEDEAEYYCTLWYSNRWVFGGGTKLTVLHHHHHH
# T26 sequence (chain, as listed by the source): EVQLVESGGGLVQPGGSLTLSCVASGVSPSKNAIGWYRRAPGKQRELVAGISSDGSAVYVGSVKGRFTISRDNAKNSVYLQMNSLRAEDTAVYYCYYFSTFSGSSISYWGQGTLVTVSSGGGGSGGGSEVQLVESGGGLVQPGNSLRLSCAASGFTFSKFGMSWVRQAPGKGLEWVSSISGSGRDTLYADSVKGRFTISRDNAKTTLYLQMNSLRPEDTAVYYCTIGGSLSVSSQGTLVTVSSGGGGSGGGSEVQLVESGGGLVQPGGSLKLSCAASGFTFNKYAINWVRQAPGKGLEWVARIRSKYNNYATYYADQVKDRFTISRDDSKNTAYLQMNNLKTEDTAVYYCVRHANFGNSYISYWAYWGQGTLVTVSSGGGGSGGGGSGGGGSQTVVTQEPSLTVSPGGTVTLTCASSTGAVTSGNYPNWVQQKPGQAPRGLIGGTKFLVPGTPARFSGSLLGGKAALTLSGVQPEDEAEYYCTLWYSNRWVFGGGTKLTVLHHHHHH
# T17 sequence (chain, as listed by the source): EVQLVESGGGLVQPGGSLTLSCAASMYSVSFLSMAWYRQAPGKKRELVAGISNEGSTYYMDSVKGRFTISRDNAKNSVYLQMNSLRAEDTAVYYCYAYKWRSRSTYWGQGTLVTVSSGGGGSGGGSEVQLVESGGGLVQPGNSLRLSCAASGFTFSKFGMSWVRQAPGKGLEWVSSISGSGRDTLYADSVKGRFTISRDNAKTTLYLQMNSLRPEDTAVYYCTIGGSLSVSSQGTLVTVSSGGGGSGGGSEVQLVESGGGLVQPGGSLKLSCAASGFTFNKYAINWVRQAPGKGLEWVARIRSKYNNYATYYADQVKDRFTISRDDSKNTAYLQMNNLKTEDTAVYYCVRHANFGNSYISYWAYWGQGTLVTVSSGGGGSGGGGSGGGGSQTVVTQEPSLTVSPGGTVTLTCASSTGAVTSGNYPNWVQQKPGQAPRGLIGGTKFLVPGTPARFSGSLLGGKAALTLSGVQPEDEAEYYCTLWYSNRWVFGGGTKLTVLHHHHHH
binder,measurement,setting,value
"biotinylated human DLL3 protein expressed as a human IgG1 fusion protein (Fc fusion, not shown: a dimerising Fc or GST, biotinylated) AGVFELQIHSFGPGPGPGAPRSPCSARLPCRLFFRVCLKPGLSEEAAESPCALGAALSARGPVYTEQPGAPAPDLPLPDGLLQVPFRDAWPGTFSFIIETWREELGDQIGGPAWSLLARVAGRRRLAAGGPWARDIQRAGAWELRFSYRARCEPPAVGTACTRLCRPRSAPSRCGPGLRPCAPLEDECEAPLVCRAGCSPEHGFCEQPGECRCLEGWTGPLCTVPVSTSSCLSPRGPSSATTGCLVPGPGPCDGNPCANGGSCSETPRSFECTCPRGFYGLRCEVSGVTCADGPCFNGGLCVGGADPDSAYICHCPPGFQGSNCEKRVDRCSLQPCRNGGLCLDLGHALRCRCRAGFAGPRCEHDLDDCAGRACANGGTCVEGGGAHRCSCALGFGGRDCRERADPCAARPCAHGGRCYAHFSGLVCACAPGYMGARCEFPVHPDGASALPAAPPGLRPGDPQRYL",Kd,[1],2.3 nM
same,Kd,[2],1.4 nM
same,Kd,[3],1.4 nM
same,Kd,[4],34 nM
same,Kd,[5],5.5 nM
same,Kd,[6],0.92 nM
same,Kd,[7],2.4 nM
same,Kd,[8],1.1 nM
same,Kd,[9],7.5 nM
same,Kd,[10],0.5 nM
same,Kd,[11],0.97 nM
same,Kd,[12],6.4 nM
same,Kd,[13],1.6 nM
same,Kd,[14],1.9 nM
same,Kd,[15],1.2 nM
same,Kd,[16],0.88 nM
same,Kd,[17],16 nM
same,Kd,[18],7.9 nM
same,Kd,[19],4.8 nM
same,Kd,[20],3.2 nM
same,Kd,[21],2.2 nM
same,Kd,[22],5.3 nM
same,Kd,[23],7.2 nM
same,Kd,[24],0.5 nM
same,Kd,[25],3.2 nM
same,Kd,[26],3.6 nM
same,Kd,[27],2.9 nM
